Source: patent US20250215101A1, “DR5 Agonist and PLK1 Inhibitor or CDK Inhibitor Combination Therapy” (Inhibrx Biosciences, Inc., priority 2022, published 2025)

Experiments:
Type in all cases: cell-based
PL45 = experiment: Cytotoxicity assay, pancreatic cell line panel, onvansertib +/- 1 nM INBRX-109; conditions: PL45; 1 nM INBRX-109 only
Protocol: (§1) Monolayer cultures of each cell line were harvested for compound screening as detailed below.
(§2) Also on day 2, test and control articles were added.
(§3) On day 4, viability measurements were taken. […] Data was graphed in GraphPad Prism 9.
(§4) The results for a panel of colorectal cancer cell lines are shown in Table 3 and FIGS. 4-6, and the results for a panel of pancreatic cell lines are shown in Table 4 and FIGS. 7 and 8.

PANC-1 = experiment: as above; conditions: PANC-1; 1 nM INBRX-109 only
Protocol: as §1, §2, §3, §4

Capan-2 = experiment: as above; conditions: Capan-2; 1 nM INBRX-109 only
Protocol: as §1, §2, §3, §4

SU.86.86 = experiment: as above; conditions: SU.86.86; 1 nM INBRX-109 only
Protocol: as §1, §2, §3, §4

Panc 10.05 = experiment: as above; conditions: Panc 10.05; 1 nM INBRX-109 only
Protocol: as §1, §2, §3, §4

BxPC-3 = experiment: as above; conditions: BxPC-3; 1 nM INBRX-109 only
Protocol: as §1, §2, §3, §4

MIA PaCa-2 = experiment: as above; conditions: MIA PaCa-2; 1 nM INBRX-109 only
Protocol: as §1, §2, §3, §4

PSN-1 = experiment: as above; conditions: PSN-1; 1 nM INBRX-109 only
Protocol: as §1, §2, §3, §4

CFPAC-1 = experiment: as above; conditions: CFPAC-1; 1 nM INBRX-109 only
Protocol: as §1, §2, §3, §4

KP4 = experiment: as above; conditions: KP4; 1 nM INBRX-109 only
Protocol: as §1, §2, §3, §4

Panc 03.27 = experiment: as above; conditions: Panc 03.27; 1 nM INBRX-109 only
Protocol: as §1, §2, §3, §4

Panc 05.04 = experiment: as above; conditions: Panc 05.04; 1 nM INBRX-109 only
Protocol: as §1, §2, §3, §4

SW-1990 = experiment: as above; conditions: SW-1990; 1 nM INBRX-109 only
Protocol: as §1, §2, §3, §4

AsPC-1 = experiment: as above; conditions: AsPC-1; 1 nM INBRX-109 only
Protocol: as §1, §2, §3, §4

HPAF-II = experiment: as above; conditions: 1 nM INBRX-109 only
Protocol: as §1, §2, §3, §4

Capan-1 = experiment: as above; conditions: Capan-1; 1 nM INBRX-109 only
Protocol: as §1, §2, §3, §4

HuP-T4 = experiment: as above; conditions: HuP-T4; 1 nM INBRX-109 only
Protocol: as §1, §2, §3, §4

HT-29 = experiment: Cell viability (CellTiter-Glo) cytotoxicity assay, INBRX-109 x onvansertib matrix, 48 h; conditions: HT-29
Protocol: as §1
(§5) Onvansertib: A 10 mg stock of onvansertib was purchased from Selleck Chemicals and was resuspended to 10 mM in DMSO. This was then aliquoted and stored at −80° C. Aliquots were thawed immediately prior to dilution and use in the assay. A 500× master plate of serial dilutions (6-point 5-fold dilutions in 100% DMSO starting at 500 μM, plus a DMSO only control) was prepared and mixed gently with a pipette. To generate a 5× working dilution plate of onvansertib, a 1:100 dilution was performed from the 500× plate into complete media (EMEM).
as §2, §3

LS174T = experiment: as above
Protocol: as §1, §5, §2, §3

SW620 = experiment: as above; conditions: SW620; INBRX-109 only (Table 1)
Protocol: as §1, §5, §2, §3

SW837 = experiment: as above; conditions: SW837
Protocol: as §1, §5, §2, §3

LS411N = experiment: as above
Protocol: as §1, §5, §2, §3

SW1463 = experiment: as above; conditions: SW1463
Protocol: as §1, §5, §2, §3

B1: INBRX-109: DR5-binding polypeptide consisting of SEQ ID NO: 7 (two VHH domains and an Fc region); DR5 agonist (protein)
chain: EVQLLESGGGEVQPGGSLRLSCAASGLTFPNYGMGWFRQAPGKEREFVSAIYWSGGTVYYAESVKGRFTISRDNAKNTLYLQMSSLRAEDTAVYYCAVTIRGAATQTWKYDYWGQGTLVTVKPGGSGGSEVQLLESGGGEVQPGGSLRLSCAASGLTFPNYGMGWFRQAPGKEREFVSAIYWSGGTVYYAESVKGRFTISRDNAKNTLYLQMSSLRAEDTAVYYCAVTIRGAATQTWKYDYWGQGTLVTVKPGGGGDKTHTCPPCPAPGGPSVFLFPPKPKDTLMISRTPEVTCVVVDVSHEDPEVKFNWYVDGVEVHNAKTKPREEQYNSTYRVVSVLTVLHQDWLNGKEYKCKVSNKALPAPIEKTISKAKGQPREPQVYTLPPSRDELTKNQVSLTCLVKGFYPSDIAVEWESNGQPENNYKTTPPVLDSDGSFFLYSKLTVDKSRWQQGNVFSCSVMHEALHNHYTQKSLSLSPGK
modifications: INBRX-109
notes: DR5 agonist
With B1 the “Max Cytotox at 1 nM” value (PL45) was 14.1%, the “Max Cytotox at 1 nM” value (PANC-1) was 32.6% and the “Max Cytotox at 1 nM” value (Capan-2) was 11.1%. The “Max Cytotox at 1 nM” value (SU.86.86) was 92.5%, the “Max Cytotox at 1 nM” value (Panc 10.05) was 23.8% and the “Max Cytotox at 1 nM” value (BxPC-3) was 51.3%. The “Max Cytotox at 1 nM” value (MIA PaCa-2) was 77.9%, the “Max Cytotox at 1 nM” value (PSN-1) was 91.9% and the “Max Cytotox at 1 nM” value (CFPAC-1) was 23.8%. For the same molecule, the “Max Cytotox at 1 nM” value (KP4) was 7.8%, the “Max Cytotox at 1 nM” value (Panc 03.27) was 53.2% and the “Max Cytotox at 1 nM” value (Panc 05.04) was 97.0%. The “Max Cytotox at 1 nM” value (SW-1990) was 54.7%, the “Max Cytotox at 1 nM” value (AsPC-1) was 14.5% and the “Max Cytotox at 1 nM” value (HPAF-II) was 22.8%. For the same molecule, the “Max Cytotox at 1 nM” value (Capan-1) was 86.9%, the “Max Cytotox at 1 nM” value (HuP-T4) was 80.7% and the “Max Cytotox” value (HT-29; INBRX-109 + 200 nM onvansertib) was 94.94%. The EC50 (HT-29; INBRX-109 only (Table 1)) was 0.0116 nM, the “Max Cytotox” value (HT-29; INBRX-109 only (Table 1)) was 71.42% and the EC50 (LS174T; INBRX-109 + 200 nM onvansertib) was 0.0907 nM. For the same molecule, the “Max Cytotox” value (LS174T; INBRX-109 + 200 nM onvansertib) was 79.32%, the EC50 (LS174T; INBRX-109 only (Table 1)) was 0.0106 nM and the “Max Cytotox” value (LS174T; INBRX-109 only (Table 1)) was 59.68%. The EC50 (SW620) was 0.00478 nM, the “Max Cytotox” value (SW620) was 20.25% and the “Max Cytotox” value (SW837; INBRX-109 + 200 nM onvansertib) was 80.64%. For the same molecule, the EC50 (SW837; INBRX-109 only (Table 1)) was 0.00123 nM, the “Max Cytotox” value (SW837; INBRX-109 only (Table 1)) was 6.43% and the “Max Cytotox” value (LS411N; INBRX-109 + 200 nM onvansertib) was 88.9%. The EC50 (LS411N; INBRX-109 only (Table 1)) was “Unstable”, the EC50 (SW1463; INBRX-109 + 200 nM onvansertib) was 0.00495 nM and the “Max Cytotox” value (SW1463; INBRX-109 + 200 nM onvansertib) was 73.74%. The EC50 (SW1463; INBRX-109 only (Table 1)) was 0.066 nM and the “Max Cytotox” value (SW1463; INBRX-109 only (Table 1)) was 38.14%.
